Laboratory results taken from publication PMC6405930, “Conservation of the Amyloid Interactome Across Diverse Fibrillar Structures” (Scientific Reports, 2019).

B1: C4b-binding protein α chain: plasma protein bound to fibrils (protein, UniProt P04003 49-597, looked up)
C4b-binding protein alpha …: NCGPPPTLSFAAPMDITLTETRFKTGTTLKYTCLPGYVRSHSTQTLTCNSDGEWVYNTFCIYKRCRHPGELRNGQVEIKTDLSFGSQIEFSCSEGFFLIGSTTSRCEVQDRGVGWSHPLPQCEIVKCKPPPDIRNGRHSGEENFYAYGFSVTYSCDPRFSLLGHASISCTVENETIGVWRPSPPTCEKITCRKPDVSHGEMVSGFGPIYNYKDTIVFKCQKGFVLRGSSVIHCDADSKWNPSPPACEPNSCINLPDIPHASWETYPRPTKEDVYVVGTVLRYRCHPGYKPTTDEPTTVICQKNLRWTPYQGCEALCCPEPKLNNGEITQHRKSRPANHCVYFYGDEISFSCHETSRFSAICQGDGTWSPRTPSCGDICNFPPKIAHGHYKQSSSYSFFKEEIIYECDKGYILVGQAKLSCSYSHWSAPAPQCKALCRKPELVNGRLSVDKDQYVEPENVTIQCDSGYGVVGPQSITCSGNRTWYPEVPKCEWETPEGCEQVLTGKRLMQCLPNPEDVKMALEVYKLSLEIEQLELQRDSARQSTLDKEL
B2: Ig γ -2 chain C region: plasma/CSF protein bound to fibrils (protein, UniProt P01859 1-395, looked up)
Immunoglobulin heavy constant …: ASTKGPSVFPLAPCSRSTSESTAALGCLVKDYFPEPVTVSWNSGALTSGVHTFPAVLQSSGLYSLSSVVTVPSSNFGTQTYTCNVDHKPSNTKVDKTVERKCCVECPPCPAPPVAGPSVFLFPPKPKDTLMISRTPEVTCVVVDVSHEDPEVQFNWYVDGVEVHNAKTKPREEQFNSTFRVVSVLTVVHQDWLNGKEYKCKVSNKGLPAPIEKTISKTKGQPREPQVYTLPPSREEMTKNQVSLTCLVKGFYPSDISVEWESNGQPENNYKTTPPMLDSDGSFFLYSKLTVDKSRWQQGNVFSCSVMHEALHNHYTQKSLSLSPELQLEESCAEAQDGELDGLWTTITIFITLFLLSVCYSATITFFKVKWIFSSVVDLKQTIVPDYRNMIRQGA
B3: Ig μ chain C region: plasma protein bound to fibrils (protein, UniProt P01871 1-474, looked up)
Immunoglobulin heavy constant …: GSASAPTLFPLVSCENSPSDTSSVAVGCLAQDFLPDSITFSWKYKNNSDISSTRGFPSVLRGGKYAATSQVLLPSKDVMQGTDEHVVCKVQHPNGNKEKNVPLPVIAELPPKVSVFVPPRDGFFGNPRKSKLICQATGFSPRQIQVSWLREGKQVGSGVTTDQVQAEAKESGPTTYKVTSTLTIKESDWLGQSMFTCRVDHRGLTFQQNASSMCVPDQDTAIRVFAIPPSFASIFLTKSTKLTCLVTDLTTYDSVTISWTRQNGEAVKTHTNISESHPNATFSAVGEASICEDDWNSGERFTCTVTHTDLPSPLKQTISRPKGVALHRPDVYLLPPAREQLNLRESATITCLVTGFSPADVFVQWMQRGQPLSPEKYVTSAPMPEPQAPGRYFAHSILTVSEEEWNTGETYTCVVAHEALPNRVTERTVDKSTEGEVSADEEGFENLWATASTFIVLFLLSLFYSTTVTLFKVK
B4: C4b-binding protein β chain: plasma protein bound to fibrils (protein, UniProt P20851 18-252, looked up)
C4b-binding protein beta chain: SDAEHCPELPPVDNSIFVAKEVEGQILGTYVCIKGYHLVGKKTLFCNASKEWDNTTTECRLGHCPDPVLVNGEFSSSGPVNVSDKITFMCNDHYILKGSNRSQCLEDHTWAPPFPICKSRDCDPPGNPVHGYFEGNNFTLGSTISYYCEDRYYLVGVQEQQCVDGEWSSALPVCKLIQEAPKPECEKALLAFQESKNLCEAMENFMQQLKESGMTMEELKYSLELKKAELKAKLL

Columns and labels:
[1] = system: T1, Ab1 fibrils; test: Fibril incubation with plasma, quantitative MS/MS of bound proteins; format: binding, human; settings: 50:1 w/w plasma protein:fibril
T1 construct: Synthetic amyloid β peptide 1–40 was purchased from Caslo Aps (Lyngby, Denmark); purchased Caslo Aps (Lyngby, Denmark); host or cells: synthetic peptide
Procedure: (§1) Plasma and CSF solutions were centrifuged (40,000 g, 20 min) to remove any aggregates. The protein concentration was determined using 280 nm absorbance assuming 1 Abs = 1 mg/mL. Samples with fibril material (20 μg), plasma (500 μg) or CSF (40 μg) proteins were prepared in 200 μL PBS buffer with 5 mM EDTA. Control samples (without fibril material) were prepared similarly. All samples were incubated at room temperature for one hour under gentle agitation. Fibrils and fibril-bound proteins were pelleted by centrifugation at 17,000 g for 30 minutes. The supernatant (175 μL) was removed and the aggregate was re-suspended in 175 μL PBS and pelleted again before further preparation for gel analysis and spin-filter assisted digest for quantitative MS/MS.
(§2) The fibril-protein pellets were transferred to spin-filters (0.22 μm), washed twice in PBS (100 μL) and once in 1 M NaCl (100 μL). The fibrils and fibril-bound proteins were dissolved by one-hour incubation in 100 μL 6 M guanidinium chloride followed by elution from the spin-filter. The eluted proteins were loaded onto a 3 kDa MWCO filter unit for filter-assisted unfolding, reduction, alkylation, and trypsin digestion. In brief, samples were washed twice in 8 M urea, once in 8 M urea with 50 mM DTT, once in 8 M urea with 50 mM iodoaceteamide, and twice in 8 M Urea. The filter units were dried by centrifugation (14,000 g in 30 minutes) after every addition. Trypsin digestion was carried out with 0.25 μg sequencing grade trypsin from Sigma Aldrich in 50 mM ammonium bicarbonate overnight at 37 °C. The tryptic peptides were collected by centrifugation, acidified with TFA (0.1%) and micro-purified using POROS R2 column material (Applied Biosystems) packed in P200 pipette tips (Sarstedt).
(§3) LC-MS/MS analyses were performed on an EASY-nLC II system (Thermo Fisher Scientific) connected to a TripleTOF 5600+ mass spectrometer (Sciex) equipped with a NanoSpray III source (Sciex) and operated under Analyst TF 1.6.0 control.
(§4) The micro-purified tryptic peptides were dissolved in 0.1% formic acid, injected and trapped on an in-house packed trap column (2 cm × 100 μm I.D) with RP ReproSil-Pur C18-AQ 3 μm resin (Dr. Maisch GmbH). Peptides were eluted from the trap column and separated on a 15 cm analytical column (75 μm i.d.) packed in-house in a pulled emitter with RP ReproSil-Pur C18-AQ 3 μm resin (Dr. Maisch GmbH). Elution from the analytical column was performed with a linear gradient from 5% to 35% phase B (90% acetonitrile with 0.1% formic acid) over 20 min for protein identification and 50 min for quantitative analysis, respectively.
(§5) All samples were analysed three times, yielding nine MS/MS experiments for each fibril for both plasma and CSF. For the area-based extracted ion chromatogram (XIC) quantification, the acquisition method was set up as an information-dependent acquisition (IDA) experiment collecting up to 25 MS/MS spectra in each 1.6 sec cycle using an exclusion window of 6 sec.
(§6) XIC quantification was based on the average ion intensity of the three most abundant peptides for each protein. Only proteins quantified in at least four out of nine MS/MS experiments per fibril were included in the quantification. The total ion scores were visualized after grouping the proteins according to function (Figure S11).
(§7) For each MS/MS experiment, the ion intensities of the individual proteins were normalized to the total ion intensity of that MS/MS experiment to achieve a relative protein composition. The contribution of each protein was averaged over all nine MS/MS experiments (Tables 1 and 2).

[2] = system: T2, Ab2 fibrils; test: as above; format: binding, human; settings: 50:1 w/w plasma protein:fibril
T2 construct: Two structurally distinct fibrils of the Aβ(1–40) peptide associated with AD
Procedure: as §1, with “Samples with fibril material (20 μg), plasma (500 μg) or CSF (40 μg) proteins were prepared in 200 μL PBS buffer with 5 mM EDTA.” left out
as §2, §3, §4, §5, §6, §7

[3] = target: T3, glucagon fibrils (Homo sapiens, UniProt P01275); test: as above; format: binding; settings: 50:1 w/w plasma protein:fibril
T3 construct: fibrils of the peptide hormone glucagon
Procedure: as §1, with “Samples with fibril material (20 μg), plasma (500 μg) or CSF (40 μg) proteins were prepared in 200 μL PBS buffer with 5 mM EDTA.” left out
as §2, §3, §4, §5, §6, §7

[4] = target: T4, C-36 fibrils (Homo sapiens, UniProt P01009); test: as above; format: binding; settings: 50:1 w/w plasma protein:fibril
T4 construct: the 36 residue C-terminal fragment of α1-antitrypsin (C-36)
Procedure: as §1, with “Samples with fibril material (20 μg), plasma (500 μg) or CSF (40 μg) proteins were prepared in 200 μL PBS buffer with 5 mM EDTA.” left out
as §2, §3, §4, §5, §6, §7

[5] = target: αSN fibrils (Homo sapiens, UniProt P37840); test: as above; format: binding; settings: 50:1 w/w plasma protein:fibril
Procedure: as §1, with “Samples with fibril material (20 μg), plasma (500 μg) or CSF (40 μg) proteins were prepared in 200 μL PBS buffer with 5 mM EDTA.” left out
as §2, §3, §4, §5, §6, §7

[6] = system: T5, FAS4-AD aggregates; test: as above; format: binding, human; parameters: key to Identification status of plasma protein bound: FAS4-AD: *: Identified, but not quantified; —: Not identified in any of the samples; settings: for Relative composition of plasma proteins bound: FAS4-AD: 50:1 w/w plasma protein:fibril
T5 construct: aggregates of a mutated version of the FAS1-4 domain of TGFBIp
Procedure: as §1, with “Samples with fibril material (20 μg), plasma (500 μg) or CSF (40 μg) proteins were prepared in 200 μL PBS buffer with 5 mM EDTA.” left out
as §2, §3, §4, §5, §6, §7

[7] = system: T1, Ab1 fibrils; test: Fibril incubation with CSF, quantitative MS/MS of bound proteins; format: binding, human; settings: 4:1 w/w CSF protein:fibril
Procedure: as §1, with “Samples with fibril material (20 μg), plasma (500 μg) or CSF (40 μg) proteins were prepared in 200 μL PBS buffer with 5 mM EDTA.” left out
as §2, §3, §4, §5, §6, §7

[8] = system: T2, Ab2 fibrils; test: as above; format: binding, human; settings: 4:1 w/w CSF protein:fibril
Procedure: as §1, with “Samples with fibril material (20 μg), plasma (500 μg) or CSF (40 μg) proteins were prepared in 200 μL PBS buffer with 5 mM EDTA.” left out
as §2, §3, §4, §5, §6, §7

[9] = target: T3, glucagon fibrils; test: as above; format: binding; settings: 4:1 w/w CSF protein:fibril
Procedure: as §1, with “Samples with fibril material (20 μg), plasma (500 μg) or CSF (40 μg) proteins were prepared in 200 μL PBS buffer with 5 mM EDTA.” left out
as §2, §3, §4, §5, §6, §7

[10] = target: T4, C-36 fibrils; test: as above; format: binding; settings: 4:1 w/w CSF protein:fibril
Procedure: as §1, with “Samples with fibril material (20 μg), plasma (500 μg) or CSF (40 μg) proteins were prepared in 200 μL PBS buffer with 5 mM EDTA.” left out
as §2, §3, §4, §5, §6, §7

[11] = system: T5, FAS4-AD aggregates; test: as above; format: binding, human; parameters: key to Identification status of CSF protein bound: FAS4-AD: *: Identified, but not quantified; —: Not identified in any of the samples; settings: symbol cells
Procedure: as §1, with “Samples with fibril material (20 μg), plasma (500 μg) or CSF (40 μg) proteins were prepared in 200 μL PBS buffer with 5 mM EDTA.” left out
as §2, §3, §4, §5, §6, §7

T4 sequence (P01009 383-418 limits assumed): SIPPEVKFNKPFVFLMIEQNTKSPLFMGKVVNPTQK
T3 sequence (P01275 53-81 limits assumed): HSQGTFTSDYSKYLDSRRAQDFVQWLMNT

Molecule | Relative composition of plasma proteins bound: Ab1 [1] | Relative composition of plasma proteins bound: Ab2 [2] | Relative composition of plasma proteins bound: Glucagon [3] | Relative composition of plasma proteins bound: C-36 [4] | Relative composition of plasma proteins bound: αSN [5] | Relative composition of plasma proteins bound: FAS4-AD [6] | Relative composition of CSF proteins bound: Ab1 [7] | Relative composition of CSF proteins bound: Ab2 [8] | Relative composition of CSF proteins bound: Glucagon [9] | Relative composition of CSF proteins bound: C-36 [10] | Identification status of CSF protein bound: FAS4-AD [11] | Identification status of plasma protein bound: FAS4-AD ([6]; symbol cells)
B1 | 6.1 ± 0.2 % of total protein | 9.9 ± 0.5 % of total protein | 3.0 ± 0.1 % of total protein | 5.5 ± 0.3 % of total protein | 7.4 ± 2.5 % of total protein | 2.7 ± 0.9 % of total protein | – | – | – | – | – | –
B2 | 0.9 ± 0.1 % of total protein | 0.9 ± 0.1 % of total protein | 0.9 ± 0.1 % of total protein | 1.2 ± 0.2 % of total protein | 1.2 ± 0.8 % of total protein | – | 1.7 ± 0.2 % of total protein | 2.0 ± 0.3 % of total protein | 1.1 ± 0.3 % of total protein | 1.0 ± 0.3 % of total protein | * | –
B3 | 0.6 ± 0.0 % of total protein | 0.7 ± 0.2 % of total protein | 0.8 ± 0.1 % of total protein | 0.4 ± 0.1 % of total protein | 0.5 ± 0.2 % of total protein | 2.6 ± 1.5 % of total protein | – | – | – | – | – | –
B4 | 0.9 ± 0.1 % of total protein | 1.3 ± 0.3 % of total protein | 0.5 ± 0.1 % of total protein | 0.7 ± 0.1 % of total protein | 1.3 ± 0.4 % of total protein | – | – | – | – | – | – | *
